We go through two molecules from patent US20240228648A1 (JIANGSU KANION PHARMACEUTICAL, published 2024).

For experiment [1], the target named is T1, CD38 on the surface of Daudi cells (human, UniProt P28907 1-300). The experiment is described as follows: cell-based or functional assay.
Experiment [2] has as its target T2, recombinant biotinylated CD38-avi protein (extracellular domain of human CD38) (human, UniProt P28907 43-300, biotinylated (avi tag)).
T2 construct: Bought from ACRO biosystems; also called CD38 recombinant protein; not shown: avi tag
Put plainly: capture ELISA: antibody captured by anti-human Fc, biotinylated CD38-avi 0.5 ug/ml, fit in GraphPad Prism. As to the method:
After 6 washes, plate was incubated with 1:1000 diluted streptavidin-HRP (BD Bioscience) in PBS™ at RT for 30 min.
On the technique in general: In an ELISA, binding on a coated surface is turned into a signal by an enzyme label.

Experiment [3] concerns the target T1, CD38 on the surface of Daudi cells. Put plainly: flow cytometry on Daudi cells, anti-human IgG-Alexa647, fit in GraphPad Prism. The protocol:
Daudi cells were washed twice with PBS and incubated for 1 hour on ice with serially diluted antibodies in FACS buffer (PBS containing 2% FBS) as indicated in table 2. Cells were washed three times with PBS and incubated with 1:200 diluted anti-human IgG-Alexa647 in FACS buffer for 30 min at 4° C. in darkness. After three times wash with PBS, cells were analyzed using flowcytometer.
On the technique in general: A flow cytometer gives signals particle by particle.

B1: IgG418 full antibody (antibody, V domains shown)
VH: QVQLQQSGPGLVKPSQTLSLTCAISGGSVSSNSAAWNWIRQSPSRGLEWLGRTYYRSKWYNDYAVSVKSRITINPDTSKNQFSLQLNSVTPEDTAVYYCARDALAAAGTYGYYYYYGMDVWGQGTMVTVSS
VL: QSALTQPASVSGSPGQSITISCTGTSSDVGGYNYVSWYQQHPGKAPKLVIYEGTQRPSGVSSRFSGSKSGNTASLTISGLQAEDEADYYCSSYTSSSFYVFGTGTKLTVLG
notes: also called IgG418 WT; IgG418-WT
In general, Kd refers to a measure of binding affinity in units of concentration. For the molecule B1, in experiment [1], the “CDC IC50 on Daudi cells (ratio of live P1 cells, 7AAD flow cytometry)” value came to 9.8 nM and the “maximal ADCC activity on Daudi cells relative to Darzalex (Jurkat effector, luciferase)” value was determined as 1.4 fold. Moreover, in experiment [2], the Kd is 0.082 nM. In experiment [3], this molecule returned an equilibrium dissociation constant (Kd) of 3.1 nM.

B2: afucosylated IgG418 (antibody, V domains shown)
VH: QVQLQQSGPGLVKPSQTLSLTCAISGGSVSSNSAAWNWIRQSPSRGLEWLGRTYYRSKWYNDYAVSVKSRITINPDTSKNQFSLQLNSVTPEDTAVYYCARDALAAAGTYGYYYYYGMDVWGQGTMVTVSS
VL: QSALTQPASVSGSPGQSITISCTGTSSDVGGYNYVSWYQQHPGKAPKLVIYEGTQRPSGVSSRFSGSKSGNTASLTISGLQAEDEADYYCSSYTSSSFYVFGTGTKLTVLG
modifications: afucosylated glycan (produced in FUT8 knockout CHO-K1 cells)
For B2, in experiment [1], the “ADCC IC50 on Daudi cells relative to Darzalex (Jurkat effector, luciferase)” value is roughly 10 fold and the “maximal ADCC activity on Daudi cells relative to Darzalex (Jurkat effector, luciferase)” value is 1.6 fold.
